Assay results taken from paper PMC4859152 (The Biochemical journal, 2015).

How the values were obtained:
[1] = molecular target: the molecule itself; assay: SEC
[2] = molecular target: the molecule itself; assay: non-reducing SDS/PAGE
[3] = molecular target: the molecule itself; assay: SEC; remark: listed apart in the source

Row | Protein | stoichiometry N [1] | stoichiometry N [2] | stoichiometry N [3]
1 | WT Prx3, hyperoxidized dimer (enzyme, human, UniProt P30048 62-256, looked up, per dimer: one Cys-Sp as sulfinic acid (SpO2-), the other active site a Cys-Sp to Cys-Sr disulfide) APAVTQHAPYFKGTAVVNGEFKDLSLDDFKGKYLVLFFYPLDFTFVCPTEIVAFSDKANEFHDVNCEVVAVSVDSHFSHLAWINTPRKNGGLGHMNIALLSDLTKQISRDYGVLLEGSGLALRGLFIIDPNGVIKHLSVNDLPVGRSVEETLRLVKAFQYVETHGEVCPANWTPDSPTIKPSPAASKEYFQKVNQ | 2 |  | 
2 | WT Prx2, oxidized (disulfide) (enzyme, human, UniProt P32119 1-198, looked up, intermolecular disulfides between Cys-Sp and Cys-Sr of the opposing subunit (two per dimer)) MASGNARIGKPAPDFKATAVVDGAFKEVKLSDYKGKYVVLFFYPLDFTFVCPTEIIAFSNRAEDFRKLGCEVLGVSVDSQFTHLAWINTPRKEGGLGPLNIPLLADVTRRLSEDYGVLKTDEGIAYRGLFIIDGKGVLRQITVNDLPVGRSVDEALRLVQAFQYTDEHGEVCPAGWKPGSDTIKPNVDDSKEYFSKHN | 10 | 2 | 
3 | WT Prx3, oxidized (disulfide) (enzyme, human, UniProt P30048 62-256, looked up, intermolecular disulfides between Cys-Sp and Cys-Sr of the opposing subunit (two per dimer)) APAVTQHAPYFKGTAVVNGEFKDLSLDDFKGKYLVLFFYPLDFTFVCPTEIVAFSDKANEFHDVNCEVVAVSVDSHFSHLAWINTPRKNGGLGHMNIALLSDLTKQISRDYGVLLEGSGLALRGLFIIDPNGVIKHLSVNDLPVGRSVEETLRLVKAFQYVETHGEVCPANWTPDSPTIKPSPAASKEYFQKVNQ |  | 2 | 
4 | CT* Prx2, oxidized (as purified) (enzyme, human, UniProt P32119 1-198, looked up, oxidized form (inter-subunit disulfides)) MASGNARIGKPAPDFKATAVVDGAFKEVKLSDYKGKYVVLFFYPLDFTFVCPTEIIAFSNRAEDFRKLGCEVLGVSVDSQFTHLAWINTPRKEGGLGPLNIPLLADVTRRLSEDYGVLKTDEGIAYRGLFIIDGKGVLRQITVNDLPVGRSVDEALRLVQAFQYTDEHGEVCPANWTPDSPTIKPNVDDSKEYFSKHN |  | 2 | 
5 | CT* Prx3, oxidized (as purified) (enzyme, human, UniProt P30048 62-256, looked up, oxidized form (inter-subunit disulfides)) APAVTQHAPYFKGTAVVNGEFKDLSLDDFKGKYLVLFFYPLDFTFVCPTEIVAFSDKANEFHDVNCEVVAVSVDSHFSHLAWINTPRKNGGLGHMNIALLSDLTKQISRDYGVLLEGSGLALRGLFIIDPNGVIKHLSVNDLPVGRSVEETLRLVKAFQYVETHGEVCPAGWKPGSDTIKPSPAASKEYFQKVNQ |  | 2 | 
6 | WT Prx3, reduced (enzyme, human, UniProt P30048 62-256, looked up) APAVTQHAPYFKGTAVVNGEFKDLSLDDFKGKYLVLFFYPLDFTFVCPTEIVAFSDKANEFHDVNCEVVAVSVDSHFSHLAWINTPRKNGGLGHMNIALLSDLTKQISRDYGVLLEGSGLALRGLFIIDPNGVIKHLSVNDLPVGRSVEETLRLVKAFQYVETHGEVCPANWTPDSPTIKPSPAASKEYFQKVNQ |  |  | 2
